Assay results published in patent publication US20080227720A1 (MOREHOUSE SCHOOL OF MEDICINE, published 2008).

Molecular target: CXCR4 receptor (human, UniProt P61073 1-352)
Test: cell-based or functional assay

CXCR4 receptor, sequence (P61073 whole entry): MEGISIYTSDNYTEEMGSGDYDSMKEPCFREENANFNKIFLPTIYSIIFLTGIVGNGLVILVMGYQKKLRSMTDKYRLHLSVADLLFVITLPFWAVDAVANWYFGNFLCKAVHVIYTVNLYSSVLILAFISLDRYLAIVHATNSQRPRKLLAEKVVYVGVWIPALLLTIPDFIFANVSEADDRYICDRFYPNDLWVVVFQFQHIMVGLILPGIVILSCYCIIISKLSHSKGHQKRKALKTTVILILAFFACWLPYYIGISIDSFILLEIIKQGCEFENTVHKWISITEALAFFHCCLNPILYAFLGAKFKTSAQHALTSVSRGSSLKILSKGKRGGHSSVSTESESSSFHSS

| Binder | apoptosis relative to the full Nef protein at an equivalent molar ratio | apoptosis relative to the full gp 120 protein at an equivalent molar ratio |
| --- | --- | --- |
| NAACAWLEAQ [Nef 10 mer peptide spanning the 50-60 motif (NAACAWLEAQ)] | ~100 % of the apoptosis observed for the full Nef protein | – |
| GRAFYTTKY [Gp120 9 mer peptide spanning amino acids 315-324 (GRAFYTTKY)] | – | ~60 % of the apoptosis observed from the full gp 120 protein |
